According to article PMC10632424, “Low-noise fluorescent detection of cardiac troponin I in human serum based on surface acoustic wave separation”:

Legend:
[1] = molecular target: T1, myoglobin (MYO) (UniProt P02144 2-154); test: fluorescence recovery by displacement of AuNP-ssDNA (bead-immobilized probe); 20 ng/mL; negligible response; PBS pH 7.2, 30 min shaking, temperature not stated; probe folded in 1 mM MgCl2, 1x PBS pH 7.2; serum diluted 10x in PBS; details: protein: commercial; label: Texas Red; gold nanoparticle quencher; biotin on streptavidin PS beads; S2 pairs with S1[6-23]; S1 overhangs 5' 5 nt and 3' 17 nt
T1 sequence: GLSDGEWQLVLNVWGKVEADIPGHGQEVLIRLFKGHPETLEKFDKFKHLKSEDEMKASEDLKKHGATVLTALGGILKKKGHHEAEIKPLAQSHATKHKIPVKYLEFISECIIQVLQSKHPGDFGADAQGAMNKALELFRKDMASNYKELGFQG

[2] = molecular target: T2, C-reactive protein (CRP) (UniProt P02741 19-224); test: as above; details: protein: commercial; chain copies: 5; label: Texas Red; gold nanoparticle quencher; biotin on streptavidin PS beads; S2 pairs with S1[6-23]; S1 overhangs 5' 5 nt and 3' 17 nt
T2 sequence: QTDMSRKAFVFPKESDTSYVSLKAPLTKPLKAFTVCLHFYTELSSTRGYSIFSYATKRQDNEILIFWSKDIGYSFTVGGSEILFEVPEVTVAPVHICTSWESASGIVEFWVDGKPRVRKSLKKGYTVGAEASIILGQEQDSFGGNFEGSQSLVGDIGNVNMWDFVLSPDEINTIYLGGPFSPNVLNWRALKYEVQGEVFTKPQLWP

[3] = molecular target: cardiac troponin I (cTnI) (human, UniProt P19429 2-210); test: fluorescence recovery by displacement of AuNP-ssDNA (bead-immobilized probe); PBS, cTnI 0.2-60 ng/mL; LOD 44 pg/mL; PBS pH 7.2, 30 min shaking, temperature not stated; probe folded in 1 mM MgCl2, 1x PBS pH 7.2; serum diluted 10x in PBS; details: protein: commercial; label: Texas Red; gold nanoparticle quencher; biotin on streptavidin PS beads; S2 pairs with S1[6-23]; S1 overhangs 5' 5 nt and 3' 17 nt
Sequence of cardiac troponin I (cTnI) (P19429 2-210): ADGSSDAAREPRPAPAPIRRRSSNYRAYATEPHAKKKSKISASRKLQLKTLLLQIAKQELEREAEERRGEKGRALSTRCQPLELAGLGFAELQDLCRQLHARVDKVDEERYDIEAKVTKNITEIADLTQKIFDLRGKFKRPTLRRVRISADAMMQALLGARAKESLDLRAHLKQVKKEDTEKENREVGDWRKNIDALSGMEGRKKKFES

B1: cTnI aptamer probe hybridized with AuNP-ssDNA (mixed)
DNA 1: CGTGCAGTACGCCAACCTTTCTCATGCGCTGCCCCTCTTA
DNA 2: GAGAAAGGTTGGCGTACT
modifications: 5'-biotin and 3'-Texas Red on S1; 5' SH-C6 on S2 (gold nanoparticle)
binding result [1]: no binding
binding result [2]: no binding
binding result [3]: binds
